Paper PMC10834534, “The NMR structure of the Ea22 lysogenic developmental protein from lambda bacteriophage” (Scientific Reports, 2024)

Molecular target: the molecule itself
Assay: NMR solution structure; 0.6 mM in 5 mM Tris-Cl pH 7.6, 50 mM NaCl, 0.05% NaN3, 308 K; intermolecular distance restraints from a 3D 13C-filtered/13C-separated NOESY on a mixed 12C/13C sample

B1: carboxy-terminal domain (CTD) fragment of λ Ea22 (102–182) (domain or fragment, bacteriophage λ)
chain: SNEVREDGNQFLVVRHPGKTPVIKHCTGDLEEFLRQLIEQDPLVTIDIITHRYYGVGGQWVQDAGEYLHMMSDAGIRIKGEIETAV
notes: Ea22 of bacteriophage lambda, carboxy-terminal domain, residues 102-182 of the 182-residue protein; gene synthesized by ATUM, in plasmid pD441NH; Uniformly 13C,15N (or 15N) labelled for NMR; a mixed 12C/13C dimer was made by mixing 12C/14N and 13C/15N proteins 1:1 in 6 M urea and diluting rapidly; Dimer printed as 21.4 kDa; also called λ Ea22 CTD; Ea22 CTD; not shown: 6xHis, N-terminal, kept
stoichiometry N: 2
